Measured values from the supplement of paper PMC12855868.

B1: library; numbered along this chain (parent)
chain: MAAAGGARLLRAASAVLGGPAGRWLHHAGSRAGSSGLLRNRGPGGSAEASRSLSVSARARSSSEDKITVHFINRDGETLTTKGKVGDSLLDVVVENNLDIDGFGACEGTLACSTCHLIFEDHIYEKLDAITDEENDMLDLAYGLTDRSRLGCQICLTKSMDNMTVRVPETVADARQSIDVGKTS

Variants of: B1
Experiment: scaled log2 fold change in cell abundance, elesclomol vs control (0 = silent mean, 1 = nonsense mean) (scaled log2 ratio); higher = higher viability under elesclomol (loss of FDX1 cuproptosis function)
Conditions: glucose 10 mM
[1] = with ABC1 FDX1 KO, elesclomol 5 nM, 14 days
[2] = with HEK293T FDX1 KO, elesclomol 40 nM, 11 days
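Note: variant abundance is its share of total variant reads in each endpoint sample, from next-generation sequencing of the integrated ORF PCR-amplified out of genomic DNA.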

Variant	scaled log2 fold change [1]	scaled log2 fold change [2]
N162L	-0.0365	-0.341
N162H	-0.203	0.208
N162A	0.23	0.844
N162F	0.167	-0.244
N162E	0.0612	0.838
N162I	-0.0298	-0.611
N162S	0.162	–
N162Y	0.0965	0.0713
N162V	0.0601	0.0858
N162K	-0.0702	0.386
N162Q	0.14	-1.17
N162R	0.34	-0.871
N162G	-0.601	–
N162T	-0.0302	0.362
N162P	0.182	-0.234
N162C	-0.275	0.0594
N162D	-0.354	0.0725
N162W	0.1	0.831
N162M	0.128	-0.13
T164M	-0.076	-0.072
T164S	-0.253	0.99
T164I	-0.259	-0.338
T164Y	-1.38	0.173
T164N	0.361	1.04

Variant	scaled log2 fold change [1]	scaled log2 fold change [2]
T164F	0.0235	-0.4
T164H	0.213	-0.0955
T164G	0.367	-0.293
T164E	-0.00918	0.119
T164R	-0.0678	-0.0374
T164V	0.342	1.31
T164A	0.408	0.0905
T164W	-0.403	-0.13
T164K	-0.0707	0.0715
T164L	-0.159	-0.224
T164D	0.108	0.818
T164Q	-0.171	–
T164C	0.25	0.194
T164P	0.508	-0.0295
R166F	-0.233	0.799
R166T	0.529	-0.473
R166S	0.275	-0.368
R166K	-0.502	-0.393
R166I	-0.0924	-0.203
R166E	-0.677	-0.967
R166A	0.373	0.284
R166L	-0.509	0.328
R166Y	0.394	1.92
R166G	0.266	-0.344

Variant	scaled log2 fold change [1]	scaled log2 fold change [2]
R166Q	-0.338	-0.083
R166P	1.06	1.77
R166V	-0.116	0.509
R166D	0.375	-0.407
R166N	-0.198	0.918
R166C	-0.501	-0.211
R166M	0.144	-0.000209
R166H	-0.236	–
R166W	-0.00581	0.748
E169T	-0.402	-0.135
E169V	-0.251	0.342
E169H	0.197	0.526
E169N	-0.234	0.306
E169P	-0.343	0.322
E169Y	-0.0627	-0.484
E169R	0.0391	0.411
E169K	-0.0829	1.04
E169L	-0.227	-0.347
E169W	-0.134	0.73
E169C	-0.223	-0.0591
E169D	-0.464	1.13
E169Q	-0.166	0.849
E169M	-0.846	0.0592
E169I	-0.202	-0.174

Variant	scaled log2 fold change [1]	scaled log2 fold change [2]
E169G	-1.32	0.409
E169A	0.277	-0.0328
E169S	-1.11	-0.0914
E169F	-0.455	0.0831
M163G	0.325	-0.225
M163S	-0.173	0.99
M163R	0.657	-0.245
M163C	-0.512	0.319
M163L	0.385	0.864
M163T	-0.131	0.00152
M163V	-0.168	0.941
M163F	0.518	-0.42
M163Q	0.357	-0.237
M163P	0.859	0.441
M163K	0.823	0.16
M163D	1.16	0.514
M163I	0.122	0.861
M163N	0.51	0.528
M163E	0.522	0.691
M163W	0.598	0.247
M163Y	0.547	-0.538
M163A	-0.185	–
M163H	0.707	0.257
A172W	0.0817	0.744

Variant	scaled log2 fold change [1]	scaled log2 fold change [2]
A172V	0.337	-0.531
A172C	-0.253	-0.168
A172Y	0.17	–
A172K	0.212	–
A172I	0.216	1.09
A172N	-0.267	-0.223
A172S	0.42	0.922
A172M	-0.557	-0.421
A172T	-0.0186	1.1
A172P	-0.333	0.355
A172R	-0.163	0.124
A172H	-0.391	0.0671
A172F	-0.0712	0.241
A172G	-0.0465	0.05
A172L	-0.0445	-0.675
A172D	0.0896	1.11
A172Q	0.194	0.591
A172E	0.236	0.926
D161T	0.262	-0.0378
D161F	0.305	0.236
D161C	0.35	0.607
D161N	0.064	-0.539
D161E	-0.0246	0.705
D161Y	0.284	0.145

Variant	scaled log2 fold change [1]	scaled log2 fold change [2]
D161V	-0.562	0.103
D161L	0.312	0.16
D161I	0.0246	-0.332
D161K	0.234	0.181
D161A	-0.111	–
D161G	-0.198	–
D161M	-0.0698	-0.0785
D161R	0.243	0.406
D161Q	0.0687	–
D161W	0.197	-0.0327
D161H	-0.161	-0.464
D161P	0.586	0.0492
D161S	0.299	-0.0997
D173C	-0.031	0.0714
D173A	0.245	0.105
V171F	0.0552	-0.419
V171K	4.83e-05	-0.343
V171H	-0.198	-0.163
V171S	-0.0546	0.136
V171I	-0.139	0.238
V171E	0.182	-0.192
V171L	0.231	0.229
V171A	-0.586	0.229
V171W	0.0569	0.292

Variant	scaled log2 fold change [1]	scaled log2 fold change [2]
V171Q	-0.00995	0.876
V171M	0.452	0.0122
V171D	-0.592	-0.239
V171P	0.142	0.0269
V171R	-0.31	-0.328
V171T	-0.214	-0.343
V171Y	-0.342	-0.405
V171C	-0.178	-0.0893
V171N	-0.524	0.216
V167Q	0.218	1.05
V167D	0.489	0.995
V167W	0.155	-0.0986
V167I	-0.468	0.138
V167K	0.318	0.00856
V167T	0.214	0.998
V167N	0.111	-0.228
V167G	0.269	0.997
V167Y	-0.0283	0.556
V167L	-0.207	-0.904
V167S	0.152	0.0174
V167H	0.217	1.13
V167A	-0.622	0.856
V167R	0.264	-0.286
V167C	-0.124	0.517

Variant	scaled log2 fold change [1]	scaled log2 fold change [2]
V167P	0.251	-0.184
V167M	0.222	-0.0856
V167E	0.136	0.156
V167F	0.518	–
P168E	0.408	-0.105
P168I	-0.0742	0.61
P168L	0.485	0.478
P168C	0.163	0.254
P168N	0.157	-0.31
P168Y	0.394	-0.173
P168T	0.449	-0.142
P168K	0.508	-0.335
P168Q	0.259	0.667
P168R	0.453	0.117
P168S	0.106	0.443
P168M	0.157	-0.366
P168W	0.463	0.286
P168V	0.143	-0.0343
P168A	0.158	-0.0417
P168H	0.377	0.136
P168D	0.403	1.03
P168F	0.153	0.798
M160Y	0.274	0.713
M160Q	0.0622	0.682

Variant	scaled log2 fold change [1]	scaled log2 fold change [2]
M160V	-0.27	–
M160W	0.366	-0.0391
M160S	0.278	0.0347
M160T	0.347	0.674
M160R	0.249	0.049
M160P	1.06	1.11
T170I	-0.092	0.126
T170K	0.0703	0.727
T170F	0.262	0.826
T170A	-0.0897	-0.0909
T170H	-0.102	-1.19
T170E	0.0373	-0.644
T170P	-0.219	0.16
T170Q	0.241	-0.893
T170Y	0.0553	-0.221
T170S	-0.088	-0.432
T170G	0.233	-0.241
T170D	0.239	–
T170W	-0.0505	0.993
T170V	-0.0936	-0.713
T170R	-0.159	–
T170L	-0.0824	-0.244
T170N	-0.0752	0.953
T170M	-0.185	–

Variant	scaled log2 fold change [1]	scaled log2 fold change [2]
T170C	0.268	-0.365
V165L	-0.0209	-0.834
V165E	1.06	1.35
V165W	0.852	0.405
V165D	1.12	0.895
V165P	0.71	0.4
V165H	1.12	0.873
V165Q	1.06	1.21
V165M	-0.123	-0.424
V165R	1.09	1.45
V165T	0.13	-0.566
V165A	-0.0573	-0.318
V165C	0.0302	0.944
V165N	0.812	1.02
V165F	0.53	0.286
V165K	1.08	1.01
V165I	-0.183	-0.249
V165G	0.475	0.411
V165Y	1.03	1.38
V165S	0.00333	0.568
